Assay results reported in publication PMC5490839 (Nature immunology, 2016).
Where no end group is shown, it is not given here.

Target: T1, Zap70 D461N-tagged (Myc- or hemagglutinin-tagged, kinase-inactive Zap70) (human, UniProt P43403 1-619, D461N)
T1 sequence (looked up): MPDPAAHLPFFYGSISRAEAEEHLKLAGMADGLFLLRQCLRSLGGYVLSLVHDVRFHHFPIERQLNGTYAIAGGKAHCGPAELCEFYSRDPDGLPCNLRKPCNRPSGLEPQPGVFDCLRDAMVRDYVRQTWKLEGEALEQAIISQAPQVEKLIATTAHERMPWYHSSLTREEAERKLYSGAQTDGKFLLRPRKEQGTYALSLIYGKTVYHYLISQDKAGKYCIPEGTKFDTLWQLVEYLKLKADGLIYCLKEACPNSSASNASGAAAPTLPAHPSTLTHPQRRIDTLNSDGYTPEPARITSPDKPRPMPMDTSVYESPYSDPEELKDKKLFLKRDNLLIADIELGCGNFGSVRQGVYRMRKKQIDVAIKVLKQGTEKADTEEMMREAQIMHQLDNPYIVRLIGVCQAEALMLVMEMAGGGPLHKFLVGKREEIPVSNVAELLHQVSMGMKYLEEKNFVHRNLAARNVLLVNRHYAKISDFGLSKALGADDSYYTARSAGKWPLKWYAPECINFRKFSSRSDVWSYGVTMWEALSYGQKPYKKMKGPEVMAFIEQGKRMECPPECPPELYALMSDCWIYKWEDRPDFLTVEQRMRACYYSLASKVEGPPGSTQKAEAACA
Assay: ELISA

GGAGQDGVRQSRASDKQTLLPNDQLYQPLKDREDDQYSHLQGNQLRRN (domain or fragment, also: ITAM phosphorylated by Lck, sites not given here, GST fusion): binds.
